Measured values published in patent US20110166074A1.

Columns and labels:
[1] = target: Cy3-labeled Alzheimer's amyloid-beta fibrils
[2] = target: mannose 6-phosphate receptor (MPR) on cultured rat cerebellar granule neurons (rat) (UniProt P70580); assay: cell-based or functional assay
UniProt P70580, sequence (P70580 whole entry): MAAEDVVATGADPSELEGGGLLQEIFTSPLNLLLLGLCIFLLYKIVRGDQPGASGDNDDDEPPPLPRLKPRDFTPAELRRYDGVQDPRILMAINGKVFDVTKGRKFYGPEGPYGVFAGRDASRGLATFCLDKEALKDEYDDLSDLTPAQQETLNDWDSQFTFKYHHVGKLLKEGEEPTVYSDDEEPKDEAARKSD

B1: recombinant human CLN2 protein produced in CHO cells (proCLN2, 65 KDa precursor) (protein)
chain: SYSPEPDQRRTLPPGWVSLGRADPEEELSLTFALRQQNVERLSELVQAVSDPSSPQYGKYLTLENVADLVRPSPLTLHTVQKWLLAAGAQKCHSVITQDFLTCWLSIRQAELLLPGAEFHHYVGGPTETHVVRSPHPYQLPQALAPHVDFVGGLHRFPPTSSLRQRPEPQVTGTVGLHLGVTPSVIRKRYNLTSQDVGSGTSNNSQACAQFLEQYFHDSDLAQFMRLFGGNFAHQASVARVVGQQGRGRAGIEASLDVQYLMSAGANISTWVYSSPGRHEGQEPFLQWLMLLSNESALPHVHTVSYGDDEDSLSSAYIQRVNTELMKAAARGLTLLFASGDSGAGCWSVSGRHQFRPTFPASSPYVTTVGGTSFQEPFLITNEIVDYISGGGFSNVFPRPSYQEEAVTKFLSSSPHLPPSSYFNASGRAYPDVAALSDGYWVVSNRVPIPWVSGTSASTPVFGGILSLINEHRILSGRPPLGFLNPRLYQQHGAGLFDVTRGCHESCLDEEVEGQGFCSGPGWDPVTGWGTPNFPALLKTLLNP
- percent of Cy3-fAβ degraded in microglia at 12.5 nM CLN2 (against mannose-6-phosphate control) [1]: insignificant (2%) degradation at 12.5 nM
- percent of Cy3-fAβ degraded in microglia at 25 nM CLN2 (against mannose-6-phosphate control) [1]: 19% at 25 nM
- percent of Cy3-fAβ degraded in microglia at 50 nM CLN2 (against mannose-6-phosphate control) [1]: 22% degradation at 50 nM CLN2
- percent of Cy3-fAβ degraded in microglia at 100 nM CLN2 (against mannose-6-phosphate control) [1]: -30% degradation of the Cy3-fAβ when 100 nM of CLN2 was added to microglia
- EC50 of M6P inhibitable uptake into rat cerebellar granule neurons (intracellular TPP1 activity) [2]: 6 to 8 nM
